Data: patent US20260085127A1

Experiments:
[1] = target: T1, human CD39 (Accession No. NM_001776.6) expressed on cells (human) (UniProt P49961); test: flow cytometry, Jurkat/TIM-3 + CD39 cells, KD from MFI
T1 sequence (looked up): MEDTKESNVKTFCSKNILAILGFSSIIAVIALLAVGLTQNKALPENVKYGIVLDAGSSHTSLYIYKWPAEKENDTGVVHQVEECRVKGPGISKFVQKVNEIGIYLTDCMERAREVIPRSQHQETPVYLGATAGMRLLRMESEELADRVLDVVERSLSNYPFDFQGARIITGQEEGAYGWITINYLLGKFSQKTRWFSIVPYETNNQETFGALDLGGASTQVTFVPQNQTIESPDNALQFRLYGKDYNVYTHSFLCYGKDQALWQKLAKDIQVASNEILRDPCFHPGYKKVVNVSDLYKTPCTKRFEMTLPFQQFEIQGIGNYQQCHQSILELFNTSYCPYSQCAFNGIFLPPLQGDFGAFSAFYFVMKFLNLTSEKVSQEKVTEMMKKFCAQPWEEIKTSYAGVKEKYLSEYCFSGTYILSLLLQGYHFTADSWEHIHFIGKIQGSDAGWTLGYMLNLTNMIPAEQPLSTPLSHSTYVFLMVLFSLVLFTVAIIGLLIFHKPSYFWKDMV

[2] = target: T2, recombinant human CD39 (in-house product, 38 to 478 aa of Accession No. NM_001776.6) (human) (UniProt P49961); test: SPR Biacore8K, antibody captured on anti-human IgG, antigen as analyte
T2 sequence (looked up): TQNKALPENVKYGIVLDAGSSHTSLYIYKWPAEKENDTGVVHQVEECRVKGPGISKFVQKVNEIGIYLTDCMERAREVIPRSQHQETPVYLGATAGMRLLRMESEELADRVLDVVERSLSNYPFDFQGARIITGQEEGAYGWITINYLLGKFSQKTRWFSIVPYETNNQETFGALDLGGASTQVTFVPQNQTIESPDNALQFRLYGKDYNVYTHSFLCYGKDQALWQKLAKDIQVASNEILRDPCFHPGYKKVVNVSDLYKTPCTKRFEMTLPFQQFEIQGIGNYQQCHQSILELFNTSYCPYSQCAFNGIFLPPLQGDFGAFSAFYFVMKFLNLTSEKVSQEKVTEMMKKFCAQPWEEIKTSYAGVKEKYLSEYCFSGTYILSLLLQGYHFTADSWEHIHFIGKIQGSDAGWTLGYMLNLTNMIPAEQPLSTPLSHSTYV

[3] = target: T1, human CD39 (Accession No. NM_001776.6) expressed on cells (human); test: flow cytometry, Jurkat/CD39 cells, KD from MFI

Kd [1]: 2.08 nM
Kd [2]: 0.106 nM
koff [2]: 0.000176 s⁻¹
kon [2]: 1.66e+06 M⁻¹ s⁻¹
Kd [3]: 1.88 nM
B1: HuP4_41_sc (antibody, part only; not given: linker and LALA Fc, not shown: a dimerising Fc or GST)
scFv, part: QVQLVESGGGVVQPGGSLRLSCVVSGFTLTNYGVHWVRQAPGKGLEWLAVILRRGSTDYNAAFMSRLAISKDNSKNTVYLELNSLRLDDTAVVAGDYFDYWGQGTTVTVSSGGGGSGGGGSGGGGSGGGGSQVQLVESGGGVVQPGGSLRLSCVVSGFTLTNYGVHWVRQAPGKGLEWLAVILRRGSTDYNAAFMSRLAISKDNSKNTVYLELNSLRLDDTAVVAGDYFDYWGQGTTVTVSS
